Results: patent US20080124780A1, “Hybrid immobilized catalytic system with controlled permeability” (NORTHEASTERN UNIVERSITY, priority 2002, published 2008)

Conditions: not told; for Permeability Coefficient: pH 7.4
Text: In order to estimate the molecular weight cut-off point of the cross-linked chitosan, a model representing the chitosan layer was developed in which a thin membrane acts as a layer surrounding the alginate core. The permeability coefficients for vitamin B2 (molecular weight 376 daltons) and vitamin B12 (molecular weight 1355 daltons) representing low-molecular weight substrates, and myoglobin (molecular weight 14,000 daltons) representing a high molecular weight substrate, were studied.
Chitosan solution was prepared by dissolving the polymer (750 kDa, 87.6% deacetylation) obtained from Pronova Biopolymers (Raymond, Wash.) in 0.1-M acetic acid to make a 0.75% (w/v) solution. Films were made by pouring 10 ml of the solution into a Petri dish (100×15 mm) and air-drying for up to 48 hours. The resulting films were dipped into a 3.0% (w/v) aqueous sodium tri-polyphosphate (Na-TPP, Sigma Chemical Company, St. Louis, Mo.) solution and kept for 1.5 hours. The cross-linked membranes were washed with distilled water once and stored in PBS at 4° C.
Using a side-by-side diffusion apparatus, the permeability coefficients of vitamin B2, vitamin B12, and myoglobin were determined. Briefly, each apparatus was composed of a donor compartment and a receptor compartment, with a 15-ml capacity. The donor and receptor compartments were separated by the membrane.
The donor compartment was filled with 15 ml of vitamin B2, vitamin B12, or myoglobin solution, and the receptor compartment was filled with 15 ml of phosphate buffered-saline (PBS) pH 7.4. The concentrations of vitamin B2, vitamin B12 and myoglobin were 0.1, 1.0, and 0.1 mg/ml respectively. The receptor compartment was stirred and temperature was controlled in both compartments at 37° C. by a circulating water bath. […] The absorbance values of vitamin B2 at 440 nm, vitamin B12 at 361 nm, and myoglobin at 410 nm were measured using a Shimadzu 160U UV/IV spectrophotometer (Columbia, Md.). The concentration of the diffused compound into the receptor compartment was calculated from calibration curves constructed earlier. […]

Substance	permeation through the membrane	Permeability Coefficient [cm^2/min × 10^6]
myoglobin	permeated at only a low level	0.34 ± 0.89
vitamin B12		7.46 ± 1.47
